In patent US20110281938A1 (BAXTER INTERNATIONAL, published 2011):

Biological target: T1, Full-length TFPI (recombinant human tissue factor pathway inhibitor, American Diagnostica, E. coli expressed) (human, UniProt P10646 29-304)
T1 construct: also called recombinant TFPI; human TFPI
T1 sequence: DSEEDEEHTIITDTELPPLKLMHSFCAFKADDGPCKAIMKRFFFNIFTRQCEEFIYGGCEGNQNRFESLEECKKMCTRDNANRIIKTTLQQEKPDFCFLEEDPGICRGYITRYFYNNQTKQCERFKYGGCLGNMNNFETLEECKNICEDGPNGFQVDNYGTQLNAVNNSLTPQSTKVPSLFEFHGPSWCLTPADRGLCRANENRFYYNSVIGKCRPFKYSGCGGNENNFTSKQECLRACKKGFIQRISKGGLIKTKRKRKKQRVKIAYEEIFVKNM
Test: dot-blot (nitrocellulose filtration) binding competition: 10 nM TFPI, trace radiolabeled aptamer ARC17480 as the displaced ligand, FXa varied 2000-0.10 nM
Protocol: For these experiments, human TFPI at a final concentration of 10 nM (American Diagnostica, Stamford, Conn., catalog #4900PC) was incubated with trace amounts of radiolabeled ARC17480 and different concentrations of human FXa (Haematologic Technologies, Essex Junction, Vt. catalog #HCXA-0060) or ARC19499 (2000 nM-0.10 nM). A control was also carried out in the absence of TFPI in which trace amounts of radiolabeled ARC17480 was incubated with different concentrations of FXa (2000 nM-0.10 nM). The percentage of radiolabeled ARC17480 bound was plotted as a function of competitor concentration and fit to the equation y=(max/(1+x/IC₅₀))+int, where y=the percentage of radiolabeled ARC17480 bound, x=the concentration of competitor, max=the maximum radiolabeled ARC17480 bound, and int=the y-intercept, to generate an IC₅₀ value for binding-competition. […] FXa partially competes with ARC17480 for binding to TFPI, as evidenced by a plateau in the competition-binding curve at concentrations above ˜75 nM. In contrast, ARC19499 completely competes with radiolabeled ARC17480 for binding to TFPI.

B1: human FXa (Haematologic Technologies, catalog #HCXA-0060) (enzyme)
chain 1: ANSFLEEMKKGHLERECMEETCSYEEAREVFEDSDKTNEFWNKYKDGDQCETSPCQNQGKCKDGLGEYTCTCLEGFEGKNCELFTRKLCSLDNGDCDQFCHEEQNSVVCSCARGYTLADNGKACIPTGPYPCGKQTLER
chain 2: IVGGQECKDGECPWQALLINEENEGFCGGTILSEFYILTAAHCLYQAKRFKVRVGDRNTEQEEGGEAVHEVEVVIKHNRFTKETYDFDIAVLRLKTPITFRMNVAPACLPERDWAESTLMTQKTGIVSGFGRTHEKGRQSTRLKMLEVPYVDRNSCKLSSSFIITQNMFCAGYDTKQEDACQGDSGGPHVTRFKDTYFVTGIVSWGEGCARKGKYGIYTKVTAFLKWIDRSMKTRGLPKAKSHAPEVITSSPLK
notes: FXa is a two-chain protease; also called Factor Xa
IC50 (read off the curve): ~7 nM
